Test results published in the supplement of paper PMC9112550, “Optimization of the antimicrobial peptide Bac7 by deep mutational scanning” (BMC Biology, 2022).

test system: Escherichia coli TOP10; test: shrunken log2 fold change of peptide-encoding DNA abundance (4.5 h post-induction vs induction); higher = less antimicrobial activity (less host growth inhibition); conditions: time post-induction: 4.5 h; library: site-saturation at positions 5, 18, 19, 20
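Further: peptides expressed intracellularly from a pBAD plasmid library in pooled LB shake-flask culture, induced with 0.3% L-arabinose, DNA abundance read by NGS, three biological replicates, DESeq2 with apeglm shrinkage.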

Row | Sequence | shrunken log2 fold change
1 | RRIRERPPRLPRPRPRPCPWPRP | -0.278
2 | RRIRMRPPRLPRPRPRPDVKPRP | 0.343
3 | RRIRHRPPRLPRPRPRPPFSPRP | -0.166
4 | RRIRARPPRLPRPRPRPVIMPRP | -0.42
5 | RRIRQRPPRLPRPRPRPCGAPRP | 0.133
6 | RRIRWRPPRLPRPRPRPQSKPRP | -0.0549
7 | RRIRKRPPRLPRPRPRPTWRPRP | 1.23
8 | RRIRPRPPRLPRPRPRPWISPRP | -0.161
9 | RRIRQRPPRLPRPRPRPWIWPRP | 0.231
10 | RRIRARPPRLPRPRPRPICGPRP | 0.248
11 | RRIRERPPRLPRPRPRPYWEPRP | -0.219
12 | RRIRPRPPRLPRPRPRPGMFPRP | -0.0259
13 | RRIRARPPRLPRPRPRPARGPRP | 0.774
14 | RRIRARPPRLPRPRPRPTVEPRP | 1.19
15 | RRIRNRPPRLPRPRPRPHGFPRP | 0.0815
16 | RRIRDRPPRLPRPRPRPECNPRP | 0.741
17 | RRIRPRPPRLPRPRPRPTVQPRP | 0.182
18 | RRIRVRPPRLPRPRPRPPWKPRP | -0.0783
19 | RRIRHRPPRLPRPRPRPDHHPRP | 0.0587
20 | RRIRGRPPRLPRPRPRPTYWPRP | 0.186
21 | RRIRGRPPRLPRPRPRPLRRPRP | 1.54
22 | RRIRTRPPRLPRPRPRPQRMPRP | -0.272
23 | RRIRSRPPRLPRPRPRPWRDPRP | 0.0985

Row | Sequence | shrunken log2 fold change
24 | RRIRNRPPRLPRPRPRPGTIPRP | -0.316
25 | RRIRSRPPRLPRPRPRPLSSPRP | -0.329
26 | RRIRFRPPRLPRPRPRPYPGPRP | 0.00399
27 | RRIRERPPRLPRPRPRPGNDPRP | -0.0081
28 | RRIRNRPPRLPRPRPRPKEFPRP | -0.012
29 | RRIRCRPPRLPRPRPRPMTEPRP | -0.123
30 | RRIRYRPPRLPRPRPRPECGPRP | -0.114
31 | RRIRDRPPRLPRPRPRPMRYPRP | 0.104
32 | RRIRRRPPRLPRPRPRPFYFPRP | 0.116
33 | RRIRWRPPRLPRPRPRPKECPRP | 0.236
34 | RRIRLRPPRLPRPRPRPVNKPRP | -0.14
35 | RRIRPRPPRLPRPRPRPPIGPRP | 0.287
36 | RRIRYRPPRLPRPRPRPYGCPRP | -0.143
37 | RRIRKRPPRLPRPRPRPMLAPRP | 0.843
38 | RRIRGRPPRLPRPRPRPKCMPRP | 0.209
39 | RRIRERPPRLPRPRPRPFCKPRP | 0.0112
40 | RRIRERPPRLPRPRPRPAGRPRP | 0.0837
41 | RRIRLRPPRLPRPRPRPVMLPRP | -0.495
42 | RRIRHRPPRLPRPRPRPHKQPRP | -0.225
43 | RRIRCRPPRLPRPRPRPMPAPRP | 0.849
44 | RRIRTRPPRLPRPRPRPCNAPRP | -0.228
45 | RRIRMRPPRLPRPRPRPYALPRP | 0.0157
46 | RRIRARPPRLPRPRPRPLMRPRP | 1.45

Row | Sequence | shrunken log2 fold change
47 | RRIRHRPPRLPRPRPRPQHMPRP | -1.2
48 | RRIRLRPPRLPRPRPRPRQNPRP | 0.108
49 | RRIRKRPPRLPRPRPRPKIWPRP | 0.475
50 | RRIRDRPPRLPRPRPRPHHIPRP | -0.361
51 | RRIRARPPRLPRPRPRPLACPRP | 0.695
52 | RRIRQRPPRLPRPRPRPEFHPRP | -0.0296
53 | RRIRARPPRLPRPRPRPTNWPRP | 0.835
54 | RRIRIRPPRLPRPRPRPPGSPRP | 0.0671
55 | RRIRARPPRLPRPRPRPDPLPRP | 0.867
56 | RRIRRRPPRLPRPRPRPRFYPRP | -0.237
57 | RRIRIRPPRLPRPRPRPCFDPRP | -0.493
58 | RRIRGRPPRLPRPRPRPHPFPRP | -0.0384
59 | RRIRERPPRLPRPRPRPQFLPRP | -0.571
60 | RRIRFRPPRLPRPRPRPWSYPRP | -0.48
61 | RRIRGRPPRLPRPRPRPKEEPRP | 1.58
62 | RRIRYRPPRLPRPRPRPDNMPRP | -0.0223
63 | RRIRGRPPRLPRPRPRPYFHPRP | -0.462
64 | RRIRARPPRLPRPRPRPYFMPRP | -0.62
65 | RRIRSRPPRLPRPRPRPEKGPRP | 0.0255
66 | RRIRIRPPRLPRPRPRPCDMPRP | -0.511
67 | RRIRCRPPRLPRPRPRPRFTPRP | 0.066
68 | RRIRQRPPRLPRPRPRPKRMPRP | -0.0373
69 | RRIRVRPPRLPRPRPRPDSRPRP | 0.0857

Row | Sequence | shrunken log2 fold change
70 | RRIRLRPPRLPRPRPRPGCWPRP | 0.482
71 | RRIRYRPPRLPRPRPRPPLMPRP | -0.293
72 | RRIRMRPPRLPRPRPRPCKKPRP | 0.106
73 | RRIRWRPPRLPRPRPRPTYIPRP | -0.428
74 | RRIRWRPPRLPRPRPRPQFHPRP | -0.275
75 | RRIRCRPPRLPRPRPRPTMTPRP | 0.106
76 | RRIRGRPPRLPRPRPRPADAPRP | 1
77 | RRIRYRPPRLPRPRPRPLVDPRP | -0.289
78 | RRIRVRPPRLPRPRPRPMKWPRP | -0.068
79 | RRIRMRPPRLPRPRPRPLDYPRP | -0.0259
80 | RRIRIRPPRLPRPRPRPVCRPRP | 1.56
81 | RRIRERPPRLPRPRPRPPRWPRP | 0.508
82 | RRIRHRPPRLPRPRPRPICYPRP | -0.178
83 | RRIRQRPPRLPRPRPRPDGDPRP | -0.0112
84 | RRIRVRPPRLPRPRPRPNTDPRP | -0.626
85 | RRIRERPPRLPRPRPRPRMRPRP | 0.506
86 | RRIRMRPPRLPRPRPRPWGAPRP | 0.698
87 | RRIRTRPPRLPRPRPRPHLFPRP | -0.111
88 | RRIRYRPPRLPRPRPRPCSFPRP | -0.0048
89 | RRIRDRPPRLPRPRPRPADCPRP | -0.0601
90 | RRIRHRPPRLPRPRPRPTMWPRP | 0.22
91 | RRIRGRPPRLPRPRPRPIITPRP | -0.0865
